The text below walks through data of patent US20190062453A1 (Hoffmann-La Roche, published 2019).

Substitutions are numbered along the chain they refer to.

One experiment has as its target T1, human DR5 ECD-Avi-his (human, UniProt O14763 56-207).
T1 construct: also called recombinant human DR5 (monomeric His-Avi fusion protein); monomeric human DR5
Kind of experiment: SPR (BIAcore 3000), antibody captured by anti-human Fc, monomeric DR5 injected.

In experiment [1] the target is T2, human DR5 (recombinant, fusion format not stated for the assay) (human, UniProt O14763 56-207).
T2 construct: all antigen constructs carry ECD aa 56-207; also called hu DR5; huDR5
Kind of experiment: binding to human DR5 after stress test, pH 6.0, 2 weeks 40° C., against non-stressed initial material (defined 100%).

In experiment [2] the target is T2, human DR5 (recombinant, fusion format …). Nature of the experiment: binding to human DR5 after stress test, pH 7.4, 2 weeks 40° C., against non-stressed initial material (defined 100%).
Experiment [3] concerns the target T3, Murine FAP ectodomain + poly-lys-tag + his6-tag (murine, UniProt P97321 27-761).
T3 construct: also called recombinant soluble murine FAP
Kind of experiment: SPR (Biacore), bispecific antibody bound to immobilised human DR5-Fc, recombinant murine FAP as second analyte (simultaneous binding). A general note: SPR reads the build-up and loss of mass on a sensor chip optically.

Experiment [4] deals with T4, Human FAP ectodomain + poly-lys-tag + his6-tag (human, UniProt Q12884 27-760).
T4 construct: also called recombinant soluble human FAP; hFAP
Nature of the experiment: SPR (Biacore), bispecific antibody bound to immobilised human DR5-Fc, recombinant human FAP as second analyte (simultaneous binding).

T3 sequence (P97321 other isoform, or with tags, fused parts or gaps): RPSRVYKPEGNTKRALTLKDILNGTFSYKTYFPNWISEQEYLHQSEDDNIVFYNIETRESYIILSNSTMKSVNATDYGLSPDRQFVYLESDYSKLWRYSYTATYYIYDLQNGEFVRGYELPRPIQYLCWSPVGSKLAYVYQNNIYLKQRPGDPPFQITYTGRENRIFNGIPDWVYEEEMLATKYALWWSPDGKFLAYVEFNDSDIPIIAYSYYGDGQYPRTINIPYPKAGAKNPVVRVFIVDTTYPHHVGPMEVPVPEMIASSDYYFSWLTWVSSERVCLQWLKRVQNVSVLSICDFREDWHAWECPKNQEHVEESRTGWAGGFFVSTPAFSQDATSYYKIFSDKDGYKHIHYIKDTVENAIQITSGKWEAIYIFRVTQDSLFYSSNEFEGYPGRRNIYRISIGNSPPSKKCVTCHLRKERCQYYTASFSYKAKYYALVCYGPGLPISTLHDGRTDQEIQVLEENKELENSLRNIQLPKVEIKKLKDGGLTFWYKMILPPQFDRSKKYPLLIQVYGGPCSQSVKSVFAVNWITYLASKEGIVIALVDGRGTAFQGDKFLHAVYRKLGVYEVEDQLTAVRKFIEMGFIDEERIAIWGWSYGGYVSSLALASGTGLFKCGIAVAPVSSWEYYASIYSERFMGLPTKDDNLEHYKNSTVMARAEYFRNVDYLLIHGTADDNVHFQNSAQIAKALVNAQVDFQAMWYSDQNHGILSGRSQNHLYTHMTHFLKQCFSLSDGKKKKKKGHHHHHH

B1: DR5TAA-0052 (antibody, human IgG1, kappa, L234A L235A, V domains shown)
VH: QSVEESGGRLVTPGTPLTLTCTVSGFSISRYAMIWVRQAPGEGLEYIGFITSDSSAYYASWAKGRFTISKTSTTVDLKMTSPTTEDTATYFCARYTYSDGTDLWGPGTLVTVSS
VL: DIVMTQTPASVSEPVGGTVTIKCQASQSISTYLSWYQQKPGQPPKRLIYKASTLASGVPSRFKGSGSGTDFTLTIRDLESADAATYYCQPNSGIATYGAAFGGGTEVVVKR
notes: rabbit variable, human constant regions; also called chimeric form of DR5TAA-0011; chimeric variant
As for B1, in the experiment with human DR5 ECD-Avi-his, the equilibrium dissociation constant (Kd) was determined as 7 nM, the koff came out at 0.0024 s⁻¹ and the kon was 350000 M⁻¹ s⁻¹.

B2: DR5TAA-0072 (antibody, human IgG1, kappa, L234A L235A)
heavy: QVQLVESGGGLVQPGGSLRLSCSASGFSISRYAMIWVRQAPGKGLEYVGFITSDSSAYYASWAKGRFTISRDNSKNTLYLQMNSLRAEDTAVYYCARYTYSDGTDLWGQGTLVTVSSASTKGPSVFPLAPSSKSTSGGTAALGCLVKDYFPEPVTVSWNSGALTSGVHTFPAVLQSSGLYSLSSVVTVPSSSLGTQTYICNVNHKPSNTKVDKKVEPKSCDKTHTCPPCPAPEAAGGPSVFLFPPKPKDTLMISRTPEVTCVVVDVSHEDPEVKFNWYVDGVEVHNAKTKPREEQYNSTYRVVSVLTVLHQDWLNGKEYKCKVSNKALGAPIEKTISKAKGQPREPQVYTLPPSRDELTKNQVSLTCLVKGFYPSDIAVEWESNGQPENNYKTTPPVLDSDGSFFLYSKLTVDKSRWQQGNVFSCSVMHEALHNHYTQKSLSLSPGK
light: DIQMTQSPSTLSASVGDRVTITCRASQSISTYLSWYQQKPGKAPKRLIYKASSLASGVPSRFSGSGSGTEFTLTISSLQPDDAATYYCQPNSGIATYGAAFGGGTKVEIKRTVAAPSVFIFPPSDEQLKSGTASVVCLLNNFYPREAKVQWKVDNALQSGNSQESVTEQDSKDSTYSLSSTLTLSKADYEKHKVYACEVTHQGLSSPVTKSFNRGEC
notes: humanized variant of DR5TAA-0011; also called VH17/VL2
On to B2, for which the entries for the “Relative active concentration as compared to the initial state” value (from here on “Relative active concentration”) in experiment [1] and in experiment [2] were 105% and 101%, respectively.

B3: 18F11_28H1 (bispecific antibody, human IgG1, kappa)
VH (DR5)-Fc part-VH (FAP)-CL chain: not shown
VL (DR5)-kappa light chain: EIVLTQSPGTLSLSPGERATLSCRASQSVSSSYLAWYQQKPGQAPRLLIYGASSRATGIPDRFSGSGSGTDFTLTISRLEPEDFAVYYCQQGQLPPITFGQGTKVEIKRTVAAPSVFIFPPSDEQLKSGTASVVCLLNNFYPREAKVQWKVDNALQSGNSQESVTEQDSKDSTYSLSSTLTLSKADYEKHKVYACEVTHQGLSSPVTKSFNRGEC
VLCH1 (FAP) chain: EIVLTQSPGTLSLSPGERATLSCRASQSVSRSYLAWYQQKPGQAPRLLIIGASTRATGIPDRFSGSGSGTDFTLTISRLEPEDFAVYYCQQGQVIPPTFGQGTKVEIKSSASTKGPSVFPLAPSSKSTSGGTAALGCLVKDYFPEPVTVSWNSGALTSGVHTFPAVLQSSGLYSLSSVVTVPSSSLGTQTYICNVNHKPSNTKVDKKVEPKSCD
notes: Printed as '18F11' on the sheet
B3: the binding result in experiment [3] and in experiment [4] was “binds” each time.

B4: DR5TAA-0034 (bispecific antibody, human IgG1, kappa)
HC (DR5-crossed FAP): not shown
LC (DR5): ALVMTQTPSSTSEPVGGTVTIKCQASQSIGSSLSWYQQTPGQPPKLLIYTASSLASSVPKRFSGSRSGTQFTLTISGVQCADAATYYCLGIDDVRRDDGFAFGGGTEVVVKRTVAAPSVFIFPPSDEQLKSGTASVVCLLNNFYPREAKVQWKVDNALQSGNSQESVTEQDSKDSTYSLSSTLTLSKADYEKHKVYACEVTHQGLSSPVTKSFNRGEC
Crossed LC (FAP): B3 VLCH1 (FAP) chain
notes: also called 298-28H1
Turning to B4, the binding result in experiment [3] and in experiment [4] was “binds” in each case.

B5: DR5TAA-0032 (bispecific antibody, human IgG1, kappa)
HC (DR5-crossed FAP): not shown
LC (DR5): AQVLTQTPSPVSAAVGGTVTINCQASQSVYNNRLAWYQQKPGQPPKLLIYLASTLASGVPSRFKGSGSGTQFTLTISDLQCDDAATYYCAGGYSGNINAFGGGTEVVVKRTVAAPSVFIFPPSDEQLKSGTASVVCLLNNFYPREAKVQWKVDNALQSGNSQESVTEQDSKDSTYSLSSTLTLSKADYEKHKVYACEVTHQGLSSPVTKSFNRGEC
Crossed LC (FAP): B3 VLCH1 (FAP) chain
notes: also called 039-28H1
Regarding B5, the binding result in experiment [3] and in experiment [4] was “binds” in each case.

B6: DR5TAA-0036 (bispecific antibody, human IgG1, kappa)
HC (DR5-crossed FAP): not shown
LC (DR5): ALVMTQTPSSVSAAVGGTVTINCQASQNIYSNLAWFQQKPGQPPKLLIYETSKLASGVPSRFSGSGSGTEFTLTISDLECDDAATYYCQSSWHSISTDCAFGGGTEVVVKRTVAAPSVFIFPPSDEQLKSGTASVVCLLNNFYPREAKVQWKVDNALQSGNSQESVTEQDSKDSTYSLSSTLTLSKADYEKHKVYACEVTHQGLSSPVTKSFNRGEC
Crossed LC (FAP): B3 VLCH1 (FAP) chain
Take B6: the binding result in experiment [3] and in experiment [4] was “binds” each time.

B7: DR5TAA-0039 (bispecific antibody, human IgG1, kappa)
VH (DR5)-Fc part-VH (FAP)-CL chain: not shown
VL (DR5)-kappa light chain: B3 VL (DR5)-kappa light chain with Q93E, L94S, I97P
VLCH1 (FAP) chain: B3 VLCH1 (FAP) chain
notes: also called DR5 (20F2)-28H1 VHCL 2 + 2
Take B7: the binding result in experiment [3] and in experiment [4] was “binds” each time.

B8: DR5TAA-0038 (bispecific antibody, human IgG1, kappa)
VH (DR5)-Fc part-VH (FAP)-CL chain: not shown
VL (DR5)-kappa light chain: B3 VL (DR5)-kappa light chain with Q93S, L94Q
VLCH1 (FAP) chain: B3 VLCH1 (FAP) chain
As to B8, the binding result in experiment [3] and in experiment [4] was “binds” throughout.

B9: DR5TAA-0037 (bispecific antibody, human IgG1, kappa)
VH (DR5)-Fc part-VH (FAP)-CL chain: not shown
VL (DR5)-kappa light chain: B3 VL (DR5)-kappa light chain with Q93S, L94N, P95Q, I97V
VLCH1 (FAP) chain: B3 VLCH1 (FAP) chain
B9: the binding result in experiment [3] and in experiment [4] was “binds” throughout.

B10: DR5TAA-0067 (antibody, human IgG1, kappa, L234A L235A, V domains shown)
VH: EVQLVETGGGLIQPGGSLRLSCAASGFTVSRYAMIWVRQAPGKGLEYIGFITSDGSTYYADSAKGRFTISRDNSKNTLYLQMNSLRAEDTAVYYCARYTYSDGTDLWGRGTLVTVSS
VL: DIQMTQSPSTLSASVGDRVTITCRASQSISTYLSWYQQKPGKAPKRLIYKASSLASGVPSRFSGSGSGTEFTLTISSLQPDDAATYYCQPNSGIATYGAAFGGGTKVEIKR
notes: humanized variant of DR5TAA-0011; also called VH7/VL15
In the experiment with human DR5 ECD-Avi-his, B10 had an equilibrium dissociation constant (Kd) of 20 nM, a koff of 0.0052 s⁻¹ and a kon of 260000 M⁻¹ s⁻¹. In experiment [1], the “Relative active concentration” value came to 107%. In addition, the “Relative active concentration” value in experiment [2] amounted to 107%.

B11: DR5TAA-0073 (antibody, human IgG1, kappa, L234A L235A, V domains shown)
VH: QVQLVESGGGLVQPGGSLRLSCSASGFSISRYAMIWVRQAPGKGLEYVGFITSDSSAYYASWAKGRFTISRDNSKNTLYLQMNSLRAEDTAVYYCARYTYSDGTDLWGQGTLVTVSS
VL: B10 VL with T10S, S53T, E70D, D81E
notes: humanized variant of DR5TAA-0011; also called VH17/VL3
With B11, the “Relative active concentration” value in experiment [1] is 104%; in experiment [2] it was 101%.

B12: DR5TAA-0074 (antibody, human IgG1, kappa, L234A L235A, V domains shown)
VH: B10 VH
VL: B10 VL with T10S, K42Q, A43P, S53T, E70D, D81E, A83F
notes: humanized variant of DR5TAA-0011; also called VH7/VL10
In the experiment with human DR5 ECD-Avi-his, B12 gave a Kd of 21 nM, an off-rate (koff) of 0.0056 s⁻¹ and a kon of 270000 M⁻¹ s⁻¹. For the same molecule, in experiment [1], the “Relative active concentration” value was 103%. In experiment [2], the “Relative active concentration” value came out at 100%.

B13: DR5TAA-0071 (antibody, human IgG1, kappa, L234A L235A)
heavy: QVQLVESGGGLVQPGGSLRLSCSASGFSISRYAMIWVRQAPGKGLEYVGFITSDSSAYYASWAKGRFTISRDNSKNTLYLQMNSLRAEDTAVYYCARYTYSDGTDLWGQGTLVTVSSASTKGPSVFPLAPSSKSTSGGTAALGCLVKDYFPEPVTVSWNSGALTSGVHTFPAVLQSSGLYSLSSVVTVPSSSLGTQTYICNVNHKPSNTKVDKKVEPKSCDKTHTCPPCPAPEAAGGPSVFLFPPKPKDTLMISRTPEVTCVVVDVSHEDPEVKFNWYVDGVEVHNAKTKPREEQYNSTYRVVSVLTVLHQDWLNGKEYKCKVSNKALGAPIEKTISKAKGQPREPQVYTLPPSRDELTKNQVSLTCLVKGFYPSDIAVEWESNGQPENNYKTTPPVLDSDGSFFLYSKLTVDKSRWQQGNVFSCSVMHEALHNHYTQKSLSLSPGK
light: ADIQMTQSPSTLSASVGDRVTITCRASQSISTYLSWYQQKPGKAPKRLIYKASSLASGVPSRFSGSGSGTEFTLTISSLQPDDAATYYCQPNSGIATYGAAFGGGTKVEIKRTVAAPSVFIFPPSDEQLKSGTASVVCLLNNFYPREAKVQWKVDNALQSGNSQESVTEQDSKDSTYSLSSTLTLSKADYEKHKVYACEVTHQGLSSPVTKSFNRGEC
notes: humanized variant of DR5TAA-0011; also called VH17/VL15
Turning to B13, in the experiment with human DR5 ECD-Avi-his, the Kd is 15 nM, the koff came to 0.0046 s⁻¹ and the kon amounted to 300000 M⁻¹ s⁻¹. The “Relative active concentration” value in experiment [1] is 103%. The “Relative active concentration” value in experiment [2] was 98%.

B14: DR5TAA-0068 (antibody, human IgG1, kappa, L234A L235A, V domains shown)
VH: B11 VH
VL: B10 VL with T10S, K42Q, A43P, S53T, E70D, D81E, A83F
notes: humanized variant of DR5TAA-0011; also called VH17/VL10
For B14, the figures for the “Relative active concentration” value in experiment [1] and in experiment [2] were 103% and 101%, respectively.

B15: DR5TAA-0066 (antibody, human IgG1, kappa, L234A L235A, V domains shown)
VH: B10 VH
VL: B10 VL with T10S, S53T, E70D, D81E
notes: humanized variant of DR5TAA-0011; also called VH7/VL3
For the molecule B15, the “Relative active concentration” value in experiment [1] was 102%; in experiment [2], 100%.

B16: DR5TAA-0075 (antibody, human IgG1, kappa, L234A L235A, V domains shown)
VH: B10 VH
VL: B10 VL with T10S, R24Q, K42Q, A43P, S53T, E70D, D81E, A83F
notes: humanized variant of DR5TAA-0011; also called VH7/VL11
In the experiment with human DR5 ECD-Avi-his, B16 yielded a dissociation constant (Kd) of 17 nM, a koff of 0.0056 s⁻¹ and a kon of 320000 M⁻¹ s⁻¹. Besides, the “Relative active concentration” value in experiment [1] was found to be 102%. The “Relative active concentration” value in experiment [2] was 99%.

For orientation: Kd means the concentration at which binding is half-saturated. A high value points to weaker binding. Broadly, the koff is the first-order rate constant of dissociation. A high value points to fast dissociation. Usually kon stands for the rate constant with which the complex forms. A higher kon goes with faster complex formation.
